The target of the assay is arnt_human ARNT (UniProt P27540).

Regarding “Endothelial PAS domain-containing protein 1 (Homo sapiens), Q99814 Q322E;M338E;Y342T”, the “effect of a mutation on the interaction” value was “disrupting interaction strength”.
